Test results from patent publication KR20140116416A.

Target: H5 hemagglutinin expressed on transfected cells (pJK2b-HA5) (influenza A virus, subtype H5; strain not stated)
Assay: cell-based or functional assay

B1: 항체 4D9 (antibody 4D9), purified (antibody, V domains shown)
VH: QVTLRESGPGLVKPSETLSLTCTISGASINTDYWSWIRQPPGKGLEWIGYIYYRGRTNYNPSLRSRVTISVDTSKNQFSLQMTSMTAADTAVYYCARDVTGISRENAFDIWGQGTLVTVSS
VL: AIRMTQSPSSLSASVGDRVTITCRASQSISGYLNWYQQKPGKAPKLLIYAASSLQSGVPSRFSGSGSGTDFTLTISSLQPEDFATYYCQQSYSIPTTFGQGTRLEIK
- cell fusion inhibition: 50 to 60%
